Measurements published in PMC5921052.

Target: Hsp90 yeast homologue (Hsc82) (yeast) (UniProt P15108)
Chain of UniProt P15108 (P15108 whole entry): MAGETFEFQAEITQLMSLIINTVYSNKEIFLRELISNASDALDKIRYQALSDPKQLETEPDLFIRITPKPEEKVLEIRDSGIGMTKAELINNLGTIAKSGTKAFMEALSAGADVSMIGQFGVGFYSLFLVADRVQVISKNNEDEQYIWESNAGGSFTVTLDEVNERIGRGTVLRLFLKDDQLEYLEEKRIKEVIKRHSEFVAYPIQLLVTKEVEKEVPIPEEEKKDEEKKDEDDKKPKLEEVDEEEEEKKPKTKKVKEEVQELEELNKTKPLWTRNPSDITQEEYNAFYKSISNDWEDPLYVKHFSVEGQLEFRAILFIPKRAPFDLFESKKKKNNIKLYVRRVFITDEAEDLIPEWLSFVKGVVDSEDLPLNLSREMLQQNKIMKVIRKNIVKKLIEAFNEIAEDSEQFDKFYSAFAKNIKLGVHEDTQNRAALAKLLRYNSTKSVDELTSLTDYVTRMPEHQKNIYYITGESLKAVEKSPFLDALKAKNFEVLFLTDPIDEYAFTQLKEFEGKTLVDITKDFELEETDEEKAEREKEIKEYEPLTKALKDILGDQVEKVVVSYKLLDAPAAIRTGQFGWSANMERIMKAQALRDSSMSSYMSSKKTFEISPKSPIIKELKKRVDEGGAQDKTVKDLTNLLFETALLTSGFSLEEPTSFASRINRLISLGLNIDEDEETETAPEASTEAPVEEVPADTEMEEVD

“model client protein Δ131Δ (domain or fragment)” was tested, and the other was 1.8 fold.
